According to the supplement of paper PMC10266784:

B1: library; numbered along this chain (parent)
chain: MAAAAAAAAEQQSSNGPVKKSMREKAVERRSVNKEHNSNFKAGYIPIDEDRLHKTGLRGRKGNLAICVIILLFILAVINLIITLVIWAVIRIGPNGCDSMEFHESGLLRFKQVSDMGVIHPLYKSTVGGRRNENLVITGNNQPIVFQQGTTKLSVENNKTSITSDIGMQFFDPRTQNILFSTDYETHEFHLPSGVKSLNVQKASTERITSNATSDLNIKVDGRAIVRGNEGVFIMGKTIEFHMGGNMELKAENSIILNGSVMVSTTRLPSSSSGDQLGSGDWVRYKLCMCADGTLFKVQVTSQNMGCQISDNPCGNTH

Variants of: B1
Assay: SGCB cell-surface expression functional score (HA stain, bin4 vs bin1, normalised to synonymous) (log10 ratio); higher = more cell-surface SGCB (functional)
Summary of the method: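 Human beta-sarcoglycan, tagged with HA and fused to YFP, was built into codon-saturation libraries and delivered by lentivirus at MOI <0.1 into HEK293 cells that stably express alpha-, gamma- and delta-sarcoglycan. After 72 hours, YFP-positive cells were sorted and grown for 5–7 days, then stained on ice with Alexa Fluor 647 anti-HA, fixed, sorted into four 5% intensity bins and amplicon-sequenced. Each variant's functional score is the log ratio of its frequency in the highest bin to that in the lowest bin, taken as the median across codons and transductions. Transductions were done in duplicate, and synonymous variants were scaled per section to mean 0, SD 0.5.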

SGCB cell-surface expression functional score (log10) of substitutions, site by site:
G128: Q -0.11; I 0.01; E 0.08; L 0.03; N 0.37; V -0.76; F 0.6; T -0.56; W 0.3; D -0.05; S 0.07; R -0.6; A 0.14; K -1.35; Y 0.6; H -0.22; M 0.04; P -1.25; C -0.21
I119: K -1.36; P -0.94; Q -1.26; L -0.19; R -0.88; C -0.49; A -0.49; T -0.97; S -1.47; W -1.04; M 0.58; D -0.97; E -1.16; V -0.21; G -0.96; F -1.3; Y -1.14; N -1.15; H -1.49
V118: D -0.11; H -0.23; W 0.32; N -0.97; G -0.31; K 0.64; Y -0.32; T 0.29; P -0.73; R -0.19; Q -0.24; M -0.05; F -0.06; S 0.19; I 0.32; L -0.05; C 0.74; E -0.21; A -0.02
S125: P -0.99; M 0.21; R -1.09; G 0.56; I -1.02; W -0.51; T -0.3; F -0.45; K -0.93; Q -0.7; N -0.2; D 0.46; H -0.37; Y -0.79; A -0.08; E -0.08; L -1.2; C 0.13; V -0.88
L122: W 0.1; K -0.12; T 0.13; I 0.65; G 0.45; M 0.05; H 0.55; Y 0.31; V -0.14; E 0.35; R 0.49; A -0.03; Q 0.48; P -1.07; C 0.06; S 0.31; D 0.28; F -0.12; N -0.12
V113: I 0.04; T -0.1; N -0.49; G -0.67; Q -0.79; K 0.32; Y -0.42; S -0.27; D -0.21; M -0.22; P 0.22; C -0.61; W -1.16; L -0.01; A -0.4; F -0.38; R -0.07; E -0.5; H -0.84
K124: T 0.31; F -0.08; L 0.07; N 0.4; P 0.61; Q 0.27; Y 0.18; E -0.5; R 0.3; H -0.35; V 0.39; C 0.21; D -0.66; A -0.41; W -0.36; I 0.1; M -0.6; S 0.11; G 0.08
H120: S 0.28; N 0.06; P -1.27; W 0.14; K -0.13; E -0.09; Y 0.03; D -0.59; I 0.16; C 0.35; L 0.39; Q -0.03; M -0.63; F 0.08; T 0.44; A -0.12; V -0.04; G -1.08; R 0.35
D115: F -1.29; Y -0.03; L -1.17; K -0.97; V -0.75; S -1.55; N -0.27; G -1.39; T -1.39; M -1.51; P -1.39; W -1.77; I -0.89; E -0.54; C -1.36; H -0.53; R -1.16; A -1.73; Q -0.98
M116: Y -1.63; S -1.38; C -1.02; W -1.47; G -1.48; E -1.47; F 0.29; V -1.02; T -0.8; N -1.13; H -1.7; D -0.59; I -1.03; L 0.08; A -1.24; P -1.45; R -1.55; Q -1.26; K -1.21
P121: W -0.71; L 0.04; A -0.17; I -0.16; V 0.5; Q -0.72; H -0.14; R -1; T -0.36; K -0.78; F 0.33; E -1.17; C 0.36; Y -0.96; N 0.38; D -0.76; M -0.6; S 0.12; G -0.47
T126: S 0.02; L -0.13; E 0.37; Q -0.75; A 0.13; P -0.31; M 0.29; W 0.62; D -0.63; C 0.11; R -0.36; F 0.32; K -0.52; V -0.28; G -0.18; H 0.76; N -0.36; Y 0.74; I 0.24
Q112: T -0.79; I 0.03; Y -0.7; R 0.07; L -0.73; W -0.83; F -0.97; M -0.17; G -0.59; P -1.14; N -1.32; S -0.17; V -0.18; K -0.1; H 0.02
S114: Q -1.66; L -1.15; I 0.12; T -0.37; W -0.55; F -0.89; D -1.53; P -0.77; H -1.62; K -1.22; N -0.49; R -1.39; E -0.49; G -0.7; C 0.01; M -0.25; Y -1.47; A 0.55; V -0.22
Y123: K -0.02; T -0.12; C 0.25; G -0.11; N 0.64; A 0.29; F 0.2; S 0.68; Q 0.06; W 0.33; H -0.35; M -0.24; D -0.53; P 0.1; L 0.02; R -0.37; I -0.3; E 0.65; V -0.18
V127: E -0.65; R -0.96; M -0.2; C 0.53; H -1.08; I -0.32; S -1.34; P -0.5; W -1.36; A -0.57; D -1.79; K -1.2; Q -1.97; N -0.94; T -0.96; Y -1.55; G -0.79; F -0.12; L -0.04
G117: A -0.7; Y -1.35; W -1.14; D -0.32; K -1.66; P -1.21; R -0.86; F -1.46; E -0.94; N 0.02; V -1.36; T -0.96; S -0.38; C -0.28; I -1.22; L -1.42; M -0.46; Q -1.06; H -0.9
G129: R -1.04; H -0.43; K -1.37; I -0.84; C -1.01; S 0.47; F -0.78; M -0.82; P 0.12; A -0.41; N -0.81; Q -1.09; L -1.15; D -0.94; E -0.9
